Reference: patent publication US20220106405A1 (YEDA RESEARCH AND DEVELOPMENT, published 2022)

T1: MMP-7 zymogen / pro form (UniProt P09237 18-267, limits assumed)
T1 construct: domain: zymogen/pro form; Recombinant zymogen on the dot blot and in ELISA; also called MMP-7 pro form; zymogen form of the enzyme
T1 sequence (looked up): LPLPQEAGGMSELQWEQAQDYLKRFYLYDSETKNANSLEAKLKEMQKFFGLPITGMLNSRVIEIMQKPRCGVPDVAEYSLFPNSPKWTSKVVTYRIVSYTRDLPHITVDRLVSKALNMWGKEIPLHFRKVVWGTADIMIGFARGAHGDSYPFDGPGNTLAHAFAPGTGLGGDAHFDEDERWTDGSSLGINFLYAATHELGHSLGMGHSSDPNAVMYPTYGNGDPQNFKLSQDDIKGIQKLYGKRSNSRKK

T2: recombinant human MMP-7 activated form (catalytic domain) (human, UniProt P09237 95-267)
T2 construct: domain: catalytic domain; Contains the catalytic zinc; also called MMP-7 active enzyme
T2 sequence (looked up): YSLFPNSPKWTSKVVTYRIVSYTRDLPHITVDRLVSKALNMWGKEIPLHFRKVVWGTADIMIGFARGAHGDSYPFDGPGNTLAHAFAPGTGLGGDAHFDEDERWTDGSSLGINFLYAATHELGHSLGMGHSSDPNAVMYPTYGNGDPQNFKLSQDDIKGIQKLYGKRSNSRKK


Key:
MMP-13 = MMP-13 (UniProt P45452 104-471, limits assumed); assay: ELISA, MMP-coated plate
Experimental: (§1) MMP-7 Elisa binding assay: A 96-well plate (Nunc) was coated with MMP at 5 mg/ml. […] The bound Fab fragment/full length was detected using a goat anti-Fab/anti-mouse antibody followed by peroxidase-conjugated bovine anti-goat antibody according to standard procedures. A four-parametric sigmoidal curve-fitting analysis was used to calculate the half-maximal effective concentration.
(§2) The lack of binding to a panel of other MMPs helped measure the novel antibody's affinity to epitopes specifically unique to MMP-7.

MMP-9 = MMP-9 (UniProt P14780 107-707, limits assumed); assay: ELISA, MMP-coated plate
Experimental: as §1, §2

MMP-12 = MMP-12 (UniProt P39900 106-263, limits assumed); assay: ELISA, MMP-coated plate
Experimental: as §1, §2

MMP-14 = MMP-14 (UniProt P50281 112-538, limits assumed); assay: ELISA, MMP-coated plate
Experimental: as §1, §2

MMP-7 zymogen / pro form = molecular target: T1, MMP-7 zymogen / pro form; assay: dot blot
Experimental: A dot blot was performed by immobilizing 1, 1.5 and 2 μg zymogen and activated MMP-7 recombinant enzyme on nitrocellulose membrane pre wetted with TBST using a vacuum based manifold 96 well dot-blot system (GE 10447900 Minifold dot blot). The blocking was performed for 1 hour at room temperature with 3% BSA in TBST. The membrane was then probed for binding by antibody eluted in the earlier step by incubating overnight. The anti MMP-7 mAb used was at 2 ug/ml concentration in TBST. The membrane after 3 washes in TBST was incubated with goat anti mouse HRP antibody and developed using ECL to determine the selectivity of binding towards catalytic form only.
Only antibodies that were capable of binding to the activated form of MMP-7 and not the zymogen were selected for further development (i.e. selected for fusion and developed to generate monoclonal antibodies). This was carried out by dot blot analysis using a nitrocellulose membrane coated with varying concentrations of active MMP-7 and its zymogen respectively.

[1] = molecular target: T2, recombinant human MMP-7 activated form …; assay: ELISA on MMP-coated plate, four-parametric sigmoidal fit
Experimental: as §1, §2

[2] = molecular target: T2, recombinant human MMP-7 activated form …; assay: enzyme inhibition, fluorogenic peptide Mca-Pro-Leu-Gly-Leu-Dpa-Ala-Arg-NH2, 10 nM MMP-7, 37 C
Experimental: The enzymatic reaction was initiated by addition of the fluorogenic peptide to a final concentration of 10 μM. Fluorescence was recorded immediately and continuously for 30 min.
Remarkably, considering that the immunization booster also included the common zinc motif, the antibody is fully selective for MMP-7. […] Simultaneously the effect of the antibody on catalytic activity of related MMPs was measured. The catalytic activities in vitro of MMP-9, -14 and -12 were either not affected or in the case of MMP-14 only negligibly affected by the anti MMP-7 Fab treatment (FIG. 2D).

MMP-9, sequence (P14780 107-707 limits assumed): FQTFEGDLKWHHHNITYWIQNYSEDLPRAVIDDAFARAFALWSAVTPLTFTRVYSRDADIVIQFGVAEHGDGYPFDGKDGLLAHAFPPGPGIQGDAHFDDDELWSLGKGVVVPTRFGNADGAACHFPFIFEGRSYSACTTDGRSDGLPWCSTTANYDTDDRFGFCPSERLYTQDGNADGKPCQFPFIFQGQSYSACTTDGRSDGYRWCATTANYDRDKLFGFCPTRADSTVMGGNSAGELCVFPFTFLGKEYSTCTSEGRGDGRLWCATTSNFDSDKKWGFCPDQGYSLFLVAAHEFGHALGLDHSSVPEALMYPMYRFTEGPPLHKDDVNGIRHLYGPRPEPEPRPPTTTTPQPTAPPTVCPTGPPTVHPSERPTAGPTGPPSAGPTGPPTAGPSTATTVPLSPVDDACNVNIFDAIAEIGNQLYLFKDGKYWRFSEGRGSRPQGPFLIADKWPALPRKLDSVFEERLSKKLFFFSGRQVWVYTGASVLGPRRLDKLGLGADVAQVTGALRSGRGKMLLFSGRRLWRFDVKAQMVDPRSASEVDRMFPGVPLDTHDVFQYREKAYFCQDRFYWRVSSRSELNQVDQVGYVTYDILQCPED
MMP-12, sequence (P39900 106-263 limits assumed): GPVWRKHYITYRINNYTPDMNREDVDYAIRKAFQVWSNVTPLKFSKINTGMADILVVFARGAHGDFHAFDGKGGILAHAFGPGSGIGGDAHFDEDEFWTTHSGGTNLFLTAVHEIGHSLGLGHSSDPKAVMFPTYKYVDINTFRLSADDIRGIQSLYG

binding result (MMP-13)	binding result (MMP-9)	binding result (MMP-12)	binding result (MMP-14)	binding result (MMP-7 zymogen / pro form)	Kd [1] [µM]	Ki [2] [µM]	Binder
no binding	no binding	no binding	no binding	no binding	0.0431		GSM-192 monoclonal antibody (antibody, V domains shown, also called anti MMP-7 mAb; anti MMP-7 Ab) VH: EVQLQQSGPELVKPGASVKIPCKASGYTFTDYNMDWMKQSHGKSLEWIGHINPNNGGTFYNQKFKDKATFIVDKSSNTAYMELRSLTSEDTAVYFCARGGGLRRGPFAYWGQGTLVTVS VL: DIVTQSPASLAVSLGQRATISCRASESFDSYGNTFVHWYQQKPGQPPKLLIYLVSNLESGVPAGFRGRGSRTDFTLTIDPVEADDAATYYCQQNNEDPYTFGGGTKLEIKR
						0.132	GSM-192 Fab fragment (Fab, V domains shown, also called anti MMP-7 Fab) VH: EVQLQQSGPELVKPGASVKIPCKASGYTFTDYNMDWMKQSHGKSLEWIGHINPNNGGTFYNQKFKDKATFIVDKSSNTAYMELRSLTSEDTAVYFCARGGGLRRGPFAYWGQGTLVTVS VL: DIVTQSPASLAVSLGQRATISCRASESFDSYGNTFVHWYQQKPGQPPKLLIYLVSNLESGVPAGFRGRGSRTDFTLTIDPVEADDAATYYCQQNNEDPYTFGGGTKLEIKR
